Where no end group is shown, it is not given here.
B1: Phage-35 (peptide, not shown: large carriers)
peptide: MDWCPRSLWHECFA
modifications: cysteine pairing not given here; also: fused to phage pIII, linker not given here
notes: Clonal phage supernatant
B2: Phage-36 (peptide, not shown: large carriers)
peptide: MDWCPRYLWHVCFA
modifications: cysteine pairing not given here; also: fused to phage pIII, linker not given here
notes: Clonal phage supernatant
B3: Phage-32 (peptide, not shown: large carriers)
peptide: MDWCPRDMWSVCFS
modifications: cysteine pairing not given here; also: fused to phage pIII, linker not given here
notes: Clonal phage supernatant; the listing entry decides
B4: Phage-261 (peptide)
peptide: MDWCPMFMWHECFN
modifications: cysteine pairing not given here; also: displayed on phage as pIII fusion, fusion limits and linker not given here
notes: Clonal phage of the Peptide-9 library, tested as crude phage supernatant; not shown: pIII of the bacteriophage
B5: Phage-275 (peptide)
peptide: MDWCPRDHWVDCYS
modifications: cysteine pairing not given here; also: displayed on phage as fusion to pIII, fusion limits and linker not given here
notes: as for B4
B6: Phage-264 (peptide)
peptide: MDWCPRHLWHVCFN
modifications: cysteine pairing not given here; also: displayed on phage pIII, linker not given here
notes: as for B4
B7: Phage-255 (peptide)
peptide: MDWCPRHLWSVCFN
modifications: cysteine pairing not given here; also: fused to phage pIII, linker and fusion site not given here
notes: as for B4
B8: Phage-274 (peptide)
peptide: WVSCLRHHWLECFH
modifications: cysteine pairing not given here; also: displayed on phage as fusion to pIII, fusion limits and linker not given here
notes: as for B4
B9: Phage-253 (peptide)
peptide: MVGCATSMWNRCLT
modifications: cysteine pairing not given here; also: fused to phage pIII, linker and fusion site not given here
notes: as for B4
B10: Phage-259 (peptide)
peptide: MDWCPRNLWHACFN
modifications: cysteine pairing not given here; also: fused to phage pIII, linker and fusion site not given here
notes: as for B4
B11: Phage-267 (peptide)
peptide: MTLCLSVDLVHCWY
modifications: cysteine pairing not given here; also: displayed on bacteriophage as fusion to pIII, fusion limits and linker not given here
notes: as for B4
B12: Phage-263 (peptide)
peptide: MDWCPRHMWHECFA
modifications: cysteine pairing not given here; also: displayed on phage pIII, linker not given here
notes: as for B4
B13: Phage-277 (peptide)
peptide: MDWCPRSHWSECFS
modifications: cysteine pairing not given here; also: displayed on phage as fusion to pIII, fusion limits and linker not given here
notes: as for B4
B14: Phage-251 (peptide)
peptide: MDWCPRFMWSECFS
modifications: cysteine pairing not given here; also: fused to phage pIII, linker and fusion site not given here
notes: as for B4
B15: Phage-269 (peptide)
peptide: DSFCTWSAWQECGR
modifications: cysteine pairing not given here; also: phage-displayed pIII fusion, pIII and linker not given here
notes: as for B4
B16: Phage-266 (peptide)
peptide: VTSCPTTMWNRCFS
modifications: cysteine pairing not given here; also: displayed on bacteriophage as fusion to pIII, fusion limits and linker not given here
notes: as for B4
B17: Phage-252 (peptide)
peptide: MDWCPRHMWINCFA
modifications: cysteine pairing not given here; also: fused to phage pIII, linker and fusion site not given here
notes: as for B4
B18: Phage-254 (peptide)
peptide: MDWCPRYLWSECFA
modifications: cysteine pairing not given here; also: fused to phage pIII, linker and fusion site not given here
notes: as for B4
B19: Phage-272 (peptide)
peptide: MVWCMSVGWAVCLN
modifications: cysteine pairing not given here; also: displayed on phage as fusion to pIII, fusion limits and linker not given here
notes: as for B4
B20: Phage-262 (peptide)
peptide: MYWCATSMWNRCFV
modifications: cysteine pairing not given here; also: displayed on phage pIII, linker not given here
notes: as for B4
B21: Phage-276 (peptide)
peptide: IDWCPKIHWDLCYF
modifications: cysteine pairing not given here; also: displayed on phage as fusion to pIII, fusion limits and linker not given here
notes: as for B4
B22: Phage-270 (peptide)
peptide: MDWCPRDFWAFCFF
modifications: cysteine pairing not given here; also: displayed on phage as fusion to pIII, fusion limits and linker not given here
notes: as for B4
B23: Phage-279 (peptide)
peptide: MDWCPRYLWAECFN
modifications: cysteine pairing not given here; also: displayed on phage as fusion to pIII, fusion limits and linker not given here
notes: as for B4
B24: Phage-257 (peptide)
peptide: MDWCPRFLWHECFN
modifications: cysteine pairing not given here; also: fused to phage pIII, linker and fusion site not given here
notes: as for B4
B25: Phage-256 (peptide)
peptide: MDWCPFDLWHVCYN
modifications: cysteine pairing not given here; also: fused to phage pIII, linker and fusion site not given here
notes: as for B4
B26: Phage-419 clonal phage peptide VDWCPAHMWNECYN (peptide)
peptide: VDWCPAHMWNECYN
notes: tested as crude clonal phage supernatant
B27: Phage-416 clonal phage peptide MDWCPSNMWNECFF (peptide)
peptide: MDWCPSNMWNECFF
notes: as for B26

biological target: T1, Anti-CD28 scFv (VH - linker 1 - VL) (biotinylated (site not stated)); test: phage ELISA as above, wells pre-incubated with soluble CD28 (competitor);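 further: ELISA of crude clonal phage supernatants added to wells pre-treated with soluble CD28 in blocking buffer, bound phage read out with HRP-conjugated anti-M13 antibody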
T1 construct: Biotinylated scFv captured on neutravidin coated plates in the panning ELISA
T1 sequence (scFv, as listed by the source): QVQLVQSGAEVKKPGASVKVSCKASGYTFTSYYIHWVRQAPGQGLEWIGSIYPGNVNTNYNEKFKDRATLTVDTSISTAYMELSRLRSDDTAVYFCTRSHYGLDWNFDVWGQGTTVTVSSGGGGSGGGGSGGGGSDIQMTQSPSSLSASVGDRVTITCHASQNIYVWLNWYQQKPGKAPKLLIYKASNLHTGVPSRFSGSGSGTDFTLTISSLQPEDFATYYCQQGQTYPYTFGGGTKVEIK

Binder | CD28 scFv signal in presence of CD28
MDWCPRHLWLECFN [Phage-387] | 0.074
IMWCPTSLWNRCVT [Phage-384] | 0.129
ILRCQMNLQDECLN [Phage-385] | 0.077
NHWCPTTLWNRCVA [Phage-386] | 0.093

biological target: anti-CD28 scFv (VH - linker 1 - VL) (biotinylated (site not stated)); test: same phage ELISA, wells pre-incubated with soluble CD28 (competitor)
Sequence (scFv, as listed by the source): as above

Binder | CD28 scFv signal in presence of CD28
B1 | 0.255
MNWCPKDIWYLCFN (peptide, not shown: large carriers, Clonal phage supernatant) [Phage-22] | 0.168
B2 | 0.226
B3 | 0.207

biological target: T2, Anti-CD28 scFv (VH - linker 1 - VL) (biotinylated (site not given)); test: phage binding ELISA on anti-CD28 scFv plate; wells pre-incubated with soluble CD28 as competitor;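 further: clonal phage supernatants tested, bound phage read out with an HRP-linked anti-M13 antibody, reference wells received blocking buffer lacking CD28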
T2 sequence (scFv, as listed by the source): as above

Binder | CD28 scFv signal in presence of CD28
B4 | 1.04
B5 | 0.092
B6 | 0.636
B7 | 0.825
B8 | 0.858
B9 | 0.746
B10 | 0.112
B11 | 0.093
B12 | 0.298
B13 | 0.087
B14 | 0.137
B15 | 0.101
B16 | 0.546
B17 | 0.165
B18 | 0.513
B19 | 0.284
B20 | 0.415
B21 | 0.082
B22 | 0.655
B23 | 1.14
B24 | 0.351
B25 | 0.651

biological target: T3, Anti-CD28 scFv (VH - linker 1 - VL) (biotinylated (site not stated)); test: phage ELISA; biotinylated anti-CD28 scFv on neutravidin plate, clonal phage supernatant, anti-M13-HRP detection;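 further: before phage addition, wells were pretreated with soluble CD28 protein in blocking buffer, or with blocking buffer only as the comparison, then phage were added without washing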
T3 construct: Biotinylated and captured on neutravidin-coated plates in the phage panning ELISA
T3 sequence (scFv, as listed by the source): as above

Binder | CD28 scFv signal
B26 | 0.664
B27 | 0.983

biological target: T2, Anti-CD28 scFv (VH - linker 1 - VL); test: phage binding ELISA; biotinylated anti-CD28 scFv on neutravidin plate, bound phage detected with anti-M13-HRP
Description: (§1) Clonal phage were harvested as crude supernatants and screened via standard enzyme linked immunosorbent assays (ELISAs). […] Prior to the addition of clonal phage, wells were incubated with blocking buffer and CD28 soluble protein or blocking buffer alone. Without washing or aspirating, clonal phage supernatants were then added to the wells and incubated for a short time. Wells were then washed followed by detection of bound phage using a horse radish peroxidase conjugated anti-M13 antibody.

Binder | CD28 scFv signal
B4 | 2.23
B5 | 0.671
B6 | 2.67
B7 | 2.65
B8 | 0.723
B9 | 0.77
B10 | 1.57
B11 | 0.632
B12 | 2.52
B13 | 0.253
B14 | 1.01
B15 | 0.13
B16 | 1.22
B17 | 0.92
B18 | 2.71
B19 | 0.271
B20 | 0.398
B21 | 0.295
B22 | 2.37
B23 | 2.74
B24 | 2.59
B25 | 2.6

biological target: T1, Anti-CD28 scFv (VH - linker 1 - VL); test: phage ELISA; biotinylated anti-CD28 scFv on neutravidin plate, clonal phage supernatant, anti-M13-HRP;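 further: before the phage were added, wells were pre-incubated with soluble CD28 protein in blocking buffer, or with blocking buffer alone, and were not washed in between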
Description: as §1

Binder | CD28 scFv signal
MDWCPRHLWLECFN [Phage-387] | 0.066
IMWCPTSLWNRCVT [Phage-384] | 0.161
ILRCQMNLQDECLN [Phage-385] | 0.083
NHWCPTTLWNRCVA [Phage-386] | 0.078

Source: patent US20260242478A1 (published 2026)
